What is called stoichiometry N is the number of molecules, sites or subunits per partner or assembly.

Substitutions are numbered along the chain they refer to. Names may count otherwise.

Here are results for two proteins from publication PMC8376246, “Analysis of the mechanosensor channel functionality of TACAN” (eLife, 2021).

The data set deals with the molecule itself. Kind of data set: cryo-EM structure; single-particle cryo-EM; purified protein at 6–7 mg/mL in digitonin, mixed with 2.9 mM FFC8; refined with C2 symmetry.

B1: Mus musculus full-length TMEM120A (TACAN, residues 1–343), wild type (natural protein, UniProt Q8C1E7 1-343, looked up)
chain: MQSPPPDPLGDCLRNWEDLQQDFQGIQETHRLYRLKLEELTKLQANCTNSITRQKKRLQELALVLKKCRPSLPSESMEAAQELENQMKERQGLFFDMEAYLPKKNGLYLSLVLGNVNVTLLSKQAKFAYKDEYEKFKLYLTIILIVISFTCRFLLNSRVTDAAFNFLLVWYYCTLTIRESILINNGSRIKGWWVFHHYVSTFLSGVMLTWPDGLMYQKFRNQFLSFSMYQSFVQFLQYYYQSGCLYRLRALGERHTMDLTVEGFQSWMWRGLTFLLPFLFFGHFWQLFNALTLFNLARDPECKEWQVLMCGFPFLLLFLGNFFTTLRVVHQKFHSQQHGNKKD
notes: TMEM120A (TACAN), Mus musculus, full length, residues 1-343; the model of the structure holds residues 9-72, 76-250 and 262-335; A PreScission protease site lies between TACAN and the C-terminal eGFP; residues of the cut site probably stay on the C-terminus (surmised; expected monomer mass printed as 41,770 Da); Synthetic gene (GeneWiz); also called TACAN^WT; M. musculus TACAN; source: HEK293S …
For the protein B1, the “stoichiometry N” value was 2.

B2: Mus musculus TACAN (TMEM120A) His196Ala, His197Ala mutant (natural protein, UniProt Q8C1E7 1-343, looked up)
chain: B1 chain with H196A, H197A
notes: TMEM120A (TACAN), Mus musculus, full length, residues 1-343, with H196A and H197A; the model of the structure holds residues 9-72, 76-250 and 262-335; Same construct as m1 with the two mutations; co-purified with coenzyme A (small molecule); Expected monomer mass printed as 41,637 Da; also called TACAN^(H196A H197A); His196Ala His197Ala mutant TACAN; source: HEK293S GnTI- cells, BacMam …
On to B2, for which the binding result was “binds”.
